Experimental data reported in patent US20210309707A1 (Stanford University, published 2021).

Target: T1, interferon-gamma receptor subunit 2 (IFN-γR2) (UniProt P38484 28-247, limits assumed)
T1 construct: Soluble purified protein (crystallised; analyte in SPR)
T1 sequence (looked up): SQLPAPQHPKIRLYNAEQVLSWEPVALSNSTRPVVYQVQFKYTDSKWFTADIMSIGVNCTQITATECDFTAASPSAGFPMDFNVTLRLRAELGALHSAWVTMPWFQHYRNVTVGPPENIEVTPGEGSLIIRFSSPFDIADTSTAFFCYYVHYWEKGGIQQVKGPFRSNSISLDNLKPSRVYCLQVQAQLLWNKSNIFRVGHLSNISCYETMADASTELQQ
Assay: SPR (Biacore T100, equilibrium); IFN-γR2 dilutions over captured IFN-γR1 in the presence of 50 nM mutant IFN-γ
Method: The structure of the IFN-γ signaling complex as described in Example 2 above provided opportunities to address new questions to further understand IFN-γ signaling and activity. By identifying the shared interactions, previously unknown, at sites IIa/IIb, one now can better understand IFN-γ signaling at each step of complex formation. Since IFN-γ is a dimeric cytokine driving the dimerization of four receptors, further experiments were performed to design and generate variants of IFN-γ to affect one or more of the different signaling intermediates. The design of the partial agonists was achieved by first engineering a version of IFN-γ that abolished binding to IFN-γR2 receptor. Based on the structure described in Example 2, a triple IFN-γ mutant having three amino acid substitutions K74A, E75Y, and N83R (See FIG. 3A) was designed and validated for the loss of measurable binding to IFN-γR2 as determined by surface plasmon resonance (FIGS. 3B-3D). Without being bound to any particular theory, several other mutations or combinations thereof of the IFN-γR2 binding site amino acids of IFN-γ as indicated in the crystal structure (FIG. 2), either alone or in combination with mutations within the IFN-γR1 binding site, could also result in similar effects on IFN-γR2 binding. […]

binding result: no binding
B1: triple IFN-γ mutant having three amino acid substitutions K74A, E75Y, and N83R (ligand)
chain: QDPYVKEAENLKKYFNAGHSDVADNGTLFLGILKNWKEESDRKIMQSQIVSFYFKLFKNFKDDQSIQKSVETIAYDMNVKFFRSNKKKRDDFEKLTNYSVTDLNVQRKAIHELIQVMAELSPAAKTGKRKRSQ
notes: also called IFN-γ (K74A/E75Y/N75R); IFN-γK74A/E75Y/N83A
